Laboratory results from patent publication US20180333502A1 (published 2018).

Legend:
[1] = molecular target: T1, human CD73 on Calu6 cells (human, UniProt P21589 27-549); assay: cell-based or functional assay
T1 sequence (looked up): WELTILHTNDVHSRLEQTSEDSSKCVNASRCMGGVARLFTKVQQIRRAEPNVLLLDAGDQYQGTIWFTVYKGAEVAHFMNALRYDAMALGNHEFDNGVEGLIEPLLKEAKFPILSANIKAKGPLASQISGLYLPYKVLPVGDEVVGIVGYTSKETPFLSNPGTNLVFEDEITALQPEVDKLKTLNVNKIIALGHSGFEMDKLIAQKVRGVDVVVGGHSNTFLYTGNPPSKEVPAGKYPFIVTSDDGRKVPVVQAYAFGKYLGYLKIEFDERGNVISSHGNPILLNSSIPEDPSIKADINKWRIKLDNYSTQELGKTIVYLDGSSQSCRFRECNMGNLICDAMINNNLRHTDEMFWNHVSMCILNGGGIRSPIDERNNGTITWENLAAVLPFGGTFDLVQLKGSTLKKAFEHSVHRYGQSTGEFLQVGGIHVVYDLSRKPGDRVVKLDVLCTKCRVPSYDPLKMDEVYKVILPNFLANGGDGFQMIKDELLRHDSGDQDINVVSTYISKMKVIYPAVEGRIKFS

[2] = molecular target: T2, human GITR on cells (activated human T cells; 3A9-hGITR cells) (human, UniProt Q9Y5U5 26-241); assay: cell-based or functional assay
T2 sequence (looked up): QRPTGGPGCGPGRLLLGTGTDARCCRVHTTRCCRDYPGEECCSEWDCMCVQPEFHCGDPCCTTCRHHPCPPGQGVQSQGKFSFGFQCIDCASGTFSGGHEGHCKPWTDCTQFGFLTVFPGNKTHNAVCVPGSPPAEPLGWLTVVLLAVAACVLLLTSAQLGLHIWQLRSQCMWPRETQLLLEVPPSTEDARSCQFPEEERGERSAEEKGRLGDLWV

Row | Binder | Ymax, CD73 internalization, Calu6 cells, 2 h [1] | Emax (%), phospho-p65 NFkB signaling, CD4+ T cells [2] | Emax (%), phospho-p65 NFkB signaling, CD8+ T cells [2]
1 | CD73.4-IgG2.3G1.1f-KH (antibody) heavy: QVQLVESGGGVVQPGRSLRLSCAASGFTFSNYGMHWVRQAPGKGLEWVAVILYDGSNKYYPDSVKGRFTISRDNSKNTLYLQMNSLRAEDTAVYYCARGGSSWYPDSFDIWGQGTMVTVSSASTKGPSVFPLAPCSRSTSESTAALGCLVKDYFPEPVTVSWNSGALTSGVHTFPAVLQSSGLYSLSSVVTVPSSNFGTQTYTCNVDHKPSNTKVDKTVERKSCVECPPCPAPPVAGPSVFLFPPKPKDTLMISRTPEVTCVVVDVSHEDPEVKFNWYVDGVEVHNAKTKPREEQYNSTYRVVSVLTVLHQDWLNGKEYKCKVSNKALPSSIEKTISKAKGQPREPQVYTLPPSREEMTKNQVSLTCLVKGFYPSDIAVEWESNGQPENNYKTTPPVLDSDGSFFLYSKLTVDKSRWQQGNVFSCSVMHEALHNHYTQKSLSLSPGK light: not shown | 97 % of 100 nM 11F11 | – | –
2 | CD73.10-IgG2-C219S (antibody) heavy: QVQLVESGGGVVQPGRSLRLSCAASGFTFSNYGMHWVRQAPGKGLEWVAVIWYDESNKYYPDSVKGRFTISRDNSKNTLYLQMNSLRAEDTAVYYCARGGSSWYPDSFDIWGQGTMVTVSSASTKGPSVFPLAPCSRSTSESTAALGCLVKDYFPEPVTVSWNSGALTSGVHTFPAVLQSSGLYSLSSVVTVPSSNFGTQTYTCNVDHKPSNTKVDKTVERKSCVECPPCPAPPVAGPSVFLFPPKPKDTLMISRTPEVTCVVVDVSHEDPEVQFNWYVDGVEVHNAKTKPREEQFNSTFRVVSVLTVVHQDWLNGKEYKCKVSNKGLPAPIEKTISKTKGQPREPQVYTLPPSREEMTKNQVSLTCLVKGFYPSDIAVEWESNGQPENNYKTTPPMLDSDGSFFLYSKLTVDKSRWQQGNVFSCSVMHEALHNHYTQKSLSLSPG light: not shown | 99 % of 100 nM 11F11 | – | –
3 | CD73.10-IgG2-C219S-IgG1.1 (antibody) heavy: QVQLVESGGGVVQPGRSLRLSCAASGFTFSNYGMHWVRQAPGKGLEWVAVIWYDESNKYYPDSVKGRFTISRDNSKNTLYLQMNSLRAEDTAVYYCARGGSSWYPDSFDIWGQGTMVTVSSASTKGPSVFPLAPCSRSTSESTAALGCLVKDYFPEPVTVSWNSGALTSGVHTFPAVLQSSGLYSLSSVVTVPSSNFGTQTYTCNVDHKPSNTKVDKTVERKSCVECPPCPAPPVAGPSVFLFPPKPKDTLMISRTPEVTCVVVDVSHEDPEVKFNWYVDGVEVHNAKTKPREEQYNSTYRVVSVLTVLHQDWLNGKEYKCKVSNKALPSSIEKTISKAKGQPREPQVYTLPPSREEMTKNQVSLTCLVKGFYPSDIAVEWESNGQPENNYKTTPPMLDSDGSFFLYSKLTVDKSRWQQGNVFSCSVMHEALHNHYTQKSLSLSPG light: not shown | 99 % of 100 nM 11F11 | – | –
4 | 11F11 (antibody, human IgG2, kappa, V domains shown) VH: QVQLVESGGGVVQPGRSLRLSCATSGFTFSNYGMHWVRQAPGKGLEWVAVILYDGSNKYYPDSVKGRFTISRDNSKNTLYLQMNSLRAEDTAVYYCARGGSSWYPDSFDIWGQGTMVTVSS VL: DIQMTQSPSSLSASVGDRVTITCRASQGISSWLAWYQQKPEKAPKSLIYAASSLQSGVPSRFSGSGSGTDFTLTISSLQPEDFATYYCQQYNSYPLTFGGGTKVEIKR | 98 % of 100 nM 11F11 | – | –
5 | anti-GITR-IgG2 (antibody) heavy: QVQLVESGGGVVQPGRSLRLSCAASGFTFSSYGMHWVRQAPGKGLEWVAVIWYEGSNKYYADSVKGRFTISRDNSKNTLYLQMNSLRAEDTAVYYCARGGSMVRGDYYYGMDVWGQGTTVTVSSASTKGPSVFPLAPCSRSTSESTAALGCLVKDYFPEPVTVSWNSGALTSGVHTFPAVLQSSGLYSLSSVVTVPSSNFGTQTYTCNVDHKPSNTKVDKTVERKCCVECPPCPAPPVAGPSVFLFPPKPKDTLMISRTPEVTCVVVDVSHEDPEVQFNWYVDGVEVHNAKTKPREEQFNSTFRVVSVLTVVHQDWLNGKEYKCKVSNKGLPAPIEKTISKTKGQPREPQVYTLPPSREEMTKNQVSLTCLVKGFYPSDIAVEWESNGQPENNYKTTPPMLDSDGSFFLYSKLTVDKSRWQQGNVFSCSVMHEALHNHYTQKSLSLSPGK light: not shown | – | 69 % of GITR.6.G2.G1f | 85 % of GITR.6.G2.G1f
